Consider 2 molecules from patent US20070025992A1 (MOCHIDA PHARMACEUTICAL, published 2007).

Experiment [1] addresses T1, GPVI-Fc (fusion protein of the extracellular domain of human GPVI and the Fc fragment of human IgG1) (human, UniProt Q9HCN6 21-267).
T1 construct: extracellular domain; also called human soluble GPVI-Fc; GPVI-hFc; not shown: human IgG1 Fc domain from plasmid pM1304 (printed as '506 amino acids'), joined in frame through a BamHI site
T1 sequence (looked up): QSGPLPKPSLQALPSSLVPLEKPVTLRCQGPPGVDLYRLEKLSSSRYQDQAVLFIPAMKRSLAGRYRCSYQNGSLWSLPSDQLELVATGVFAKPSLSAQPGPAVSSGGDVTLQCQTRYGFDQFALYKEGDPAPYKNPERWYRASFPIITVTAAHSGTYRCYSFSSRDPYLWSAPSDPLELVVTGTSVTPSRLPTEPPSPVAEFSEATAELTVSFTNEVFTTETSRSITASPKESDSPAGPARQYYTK
The experiment is described as follows: ELISA on immobilized GPVI-Fc (0.25 µg/well), 20 ng purified antibody, peroxidase-labeled anti-human kappa or lambda antibody, absorbance at 450 nm. How it is done:
GPVI binding activity of the purified antibody that was obtained in EXAMPLE 2 was assayed by the ELISA method that was described in EXAMPLE 2. As substitute for the culture supernatant of hybridoma in EXAMPLE 2, 20 ng of the purified anti-GPVI monoclonal human antibody prepared in EXAMPLE 2 was added, and as a control, purified human IgM (Cappel) was used.
Thus it was confirmed that the prepared antibody specifically recognizes GPVI.

The target in experiment [2] is T1, GPVI-Fc (fusion protein of the …). The experiment is described as follows: SPR (BIACORE3000), GPVI-Fc immobilized on CM5 chip.

B1: #2-37 (antibody, V domains shown)
VH: EVQLVESGGGLVKPGGSLRLSCAASGFTFSDYYMSWIRQAPGKGLEWVSYITSSSSYTNYADSVKGRFTISRDNAKNSLYLQMNSLRAEDTAVYYCARDRAVRGVIIIRPPDYWGQGTLVTVSS
VL: QSALTQPASVSGSPGQSITISCTGTSSDVGGYNYVSWYQQHPGKAPKLMIYDVSNRPSGVSNRFSGSKSGNTASLTISGLQAEDEADYYCSSYTSSSTLVFGGGTKLTVL
notes: Human monoclonal antibody from a hybridoma; also called clone #2-37; #2-37 antibody
For B1, the binding result in experiment [1] is “binds”.

B2: #2-4 antibody (anti-GPVI monoclonal human antibody produced by hybridoma clone #2-4) (antibody, V domains shown)
VH: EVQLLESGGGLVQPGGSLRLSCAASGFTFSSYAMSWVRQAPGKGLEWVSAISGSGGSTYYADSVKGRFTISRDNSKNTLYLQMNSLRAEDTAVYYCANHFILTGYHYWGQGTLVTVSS
VL: QSVLTQPPSVSAAPGQKVTISCSGSSSNIGNNYVSWYQQLPGTAPKLLIYDNNKRPSGIPDRFSGSKSGTSATLGITGLQTGDEADYYCGTWDSSLSAGVFGGGTKLTVL
The molecule B2 returned a Kd in experiment [2] of 41.3 nM.
